In PMC4791424, “The BAH domain of BAHD1 is a histone H3K27me3 reader” (Protein & Cell, 2016):
One block for each molecule: values may come before it. No end group written: not given here. me3 = trimethyl on lysine side chain

Experiments:
[1] = target: T1, BAH domain of human BAHD1 (BAH589-780), wild type (Homo sapiens, UniProt Q8TBE0); assay: Isothermal titration calorimetry (ITC), wild type BAH domain; assay type: binding; settings: wild type BAHBAHD1
T1 construct: The BAH domain encompassing residues 589-780 of human BAHD1 was cloned in to a; 10xHis-SUMO (N, cleaved yes); made in house; host or cells: E. coli BL21 (DE3)
T1 sequence (Q8TBE0 589-780): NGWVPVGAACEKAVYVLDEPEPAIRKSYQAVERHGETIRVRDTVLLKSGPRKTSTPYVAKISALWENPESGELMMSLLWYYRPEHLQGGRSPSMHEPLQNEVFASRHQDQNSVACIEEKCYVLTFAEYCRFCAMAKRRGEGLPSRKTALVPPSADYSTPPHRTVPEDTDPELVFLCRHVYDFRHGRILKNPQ

[2] = target: BAH_(BAHD1) domain (aa 589–780), as used in ITC and HXMS (human) (UniProt Q8TBE0); assay: ITC; BAH_(BAHD1) domain titrated with histone peptides; optimized buffer condition (Tm 39°C in thermal shift assays)
[3] = target: BAHD1 BAH domain, 589-780 (UniProt Q8TBE0); assay: isothermal titration calorimetry; settings: reference: H3K27me3 peptide; sites S28
[4] = target: BAH domain of human BAHD1 (residues 589-780), wild type (human) (UniProt Q8TBE0); assay: ITC; BAH domain (wild type or mutant) titrated with histone peptide; 15 °C, MicroCal iTC200; 20 mM Tris pH 8.5, 500 mM (NH)2SO4, 5% glycerol; "One Set of Binding Sites" fitting model
[5] = target: T2, BAH domain of human BAHD1 (residues 589-780), wild type (human, UniProt Q8TBE0 589-780); assay: as above; settings: both partners purified
T2 construct: BAHD1 (bromo adjacent homology domain containing protein 1), human, BAH domain, residues 589-780 of the full-length protein (1-780); also called BAH589-780; BAH_(BAHD1); source: E. coli BL21 (DE3), purified (HisTrap, tag cleaved by ULP1, Superdex G75); not shown: 10xHis-SUMO, N-terminal, cleaved
T2 sequence (looked up): T1 sequence (Q8TBE0 589-780)

Molecule: H3K27me1 peptide
- Kd [2]: 2 mM

Molecule: H3K27me3 peptide, H3 frame 19–34 (from UniProt P68431 20-35)
- fold reduction of binding against H3 (15-42)K27me3 [2]: 3.9 fold

Molecule: H3K27me3 peptide, H3 frame 21–32 (from UniProt P68431 22-33)
- fold reduction of binding against H3 (15-42)K27me3 [2]: 7.8 fold

Molecule: NH2-ARTKQTAR(me2s)KS-COOH [H31-10R8me2s, histone H3 peptide residues 1-10 with R8me2s]
- binding observed by ITC (in words) [1]: no bindings were observed

Molecule: histone H3 (15-42) K27me3 S28ph peptide
- stoichiometry N [4]: 1

B1: histone H3 (21-32) K27me3 peptide (peptide)
peptide: ATKAARK(me3)SAPAT
notes: histone H3, residues 21-32 (A31: as in H3.1/H3.2); source: synthetic peptide (SciLight Biotechnology)
- Kd [5]: 0.124 mM
- stoichiometry N [5]: 1.1

B2: histone H3 (19-34) K27me3 peptide (peptide)
peptide: QLATKAARKSAPATGG
modifications: trimethyl-lysine at K27 (K(me3))
notes: histone H3, residues 19-34 (A31: as in H3.1/H3.2); source: synthetic peptide (SciLight Biotechnology)
- Kd [5]: 0.0613 mM

Now from value to molecule:

- binding observed by ITC (in words) [1]: no bindings were observed
Molecule: ARTKQTARKSTGGK(ac)A-NH2 [H31-15K14ac, histone H3 peptide residues 1-15 with acetylated K14]

- Kd [2]: 2.6 mM
Molecule: H3_(1-15)K9me3 peptide (from UniProt P68431 2-16)

- KD [3]: weaker; reference 15.9
Molecule: histone H3 15-42 H3K27me3S28ph peptide

- stoichiometry N [4]: 1
Molecule: histone H3 (15-42) K27me1 peptide

- stoichiometry N [4]: 1.1
Molecule: histone H3 (15-42) K27me2 peptide

- stoichiometry N [4]: 1
Molecule: histone H3 (15-42) K27me3 peptide
